Results on 15 molecules are retold here after US20070077597A1 (published 2007).

First the molecules themselves.
B1: LacI fusion clone L3 (Gt library) (other, E. coli, not shown: small tags and cut ends)
chain: MKPVTLYDVAEYAGVSYQTVSRVVNQASHVSAKTREKVEAAMAELNYIPNRVAQQLAGKQSLLIGVATSSLALHAPSQIVAAIKSRADQLGASVVVSMVERSGVEACKAAVHNLLAQRVSGLIINYPLDDQDAIAVEAACTNVPALFLDVSDQTPINSIIFSHEDGTRLGVEHLVALGHQQIALLAGPLSSVSARLRLAGWHKYLTRNQIQPIAEREGDWSAMSGFQQTMQMLNEGIVPTAMLVANDQMALGAMRAITESGLRVGADISVVGYDDTEDSSCYIPPLTTIKQDFRLLGQTSVDRLLQLSQGQAVKGNQLLPVSLVKRKTTLAPNTQTASPRALADSLMQLARQVSRLESGQILENLKDCGLF
B2: LacI fusion clone L10 (Gt library), IHDRLKDCGLF (other, E. coli, not shown: small tags and cut ends)
chain: MKPVTLYDVAEYAGVSYQTVSRVVNQASHVSAKTREKVEAAMAELNYIPNRVAQQLAGKQSLLIGVATSSLALHAPSQIVAAIKSRADQLGASVVVSMVERSGVEACKAAVHNLLAQRVSGLIINYPLDDQDAIAVEAACTNVPALFLDVSDQTPINSIIFSHEDGTRLGVEHLVALGHQQIALLAGPLSSVSARLRLAGWHKYLTRNQIQPIAEREGDWSAMSGFQQTMQMLNEGIVPTAMLVANDQMALGAMRAITESGLRVGADISVVGYDDTEDSSCYIPPLTTIKQDFRLLGQTSVDRLLQLSQGQAVKGNQLLPVSLVKRKTTLAPNTQTASPRALADSLMQLARQVSRLESGQIHDRLKDCGLF
notes: this is the first
B3: LacI fusion clone L38 (Gt library) (other, E. coli, not shown: small tags and cut ends)
chain: MKPVTLYDVAEYAGVSYQTVSRVVNQASHVSAKTREKVEAAMAELNYIPNRVAQQLAGKQSLLIGVATSSLALHAPSQIVAAIKSRADQLGASVVVSMVERSGVEACKAAVHNLLAQRVSGLIINYPLDDQDAIAVEAACTNVPALFLDVSDQTPINSIIFSHEDGTRLGVEHLVALGHQQIALLAGPLSSVSARLRLAGWHKYLTRNQIQPIAEREGDWSAMSGFQQTMQMLNEGIVPTAMLVANDQMALGAMRAITESGLRVGADISVVGYDDTEDSSCYIPPLTTIKQDFRLLGQTSVDRLLQLSQGQAVKGNQLLPVSLVKRKTTLAPNTQTASPRALADSLMQLARQVSRLESGQLLDILKDCGLF
B4: LacI fusion clone L14 (Gt library) (other, E. coli, not shown: small tags and cut ends)
chain: MKPVTLYDVAEYAGVSYQTVSRVVNQASHVSAKTREKVEAAMAELNYIPNRVAQQLAGKQSLLIGVATSSLALHAPSQIVAAIKSRADQLGASVVVSMVERSGVEACKAAVHNLLAQRVSGLIINYPLDDQDAIAVEAACTNVPALFLDVSDQTPINSIIFSHEDGTRLGVEHLVALGHQQIALLAGPLSSVSARLRLAGWHKYLTRNQIQPIAEREGDWSAMSGFQQTMQMLNEGIVPTAMLVANDQMALGAMRAITESGLRVGADISVVGYDDTEDSSCYIPPLTTIKQDFRLLGQTSVDRLLQLSQGQAVKGNQLLPVSLVKRKTTLAPNTQTASPRALADSLMQLARQVSRLESGQLRENLKDCGLL
B5: LacI fusion clone 13 (Gt library), IRGSLKDCGLF (other, E. coli, not shown: small tags and cut ends)
chain: MKPVTLYDVAEYAGVSYQTVSRVVNQASHVSAKTREKVEAAMAELNYIPNRVAQQLAGKQSLLIGVATSSLALHAPSQIVAAIKSRADQLGASVVVSMVERSGVEACKAAVHNLLAQRVSGLIINYPLDDQDAIAVEAACTNVPALFLDVSDQTPINSIIFSHEDGTRLGVEHLVALGHQQIALLAGPLSSVSARLRLAGWHKYLTRNQIQPIAEREGDWSAMSGFQQTMQMLNEGIVPTAMLVANDQMALGAMRAITESGLRVGADISVVGYDDTEDSSCYIPPLTTIKQDFRLLGQTSVDRLLQLSQGQAVKGNQLLPVSLVKRKTTLAPNTQTASPRALADSLMQLARQVSRLESGQIRGSLKDCGLF
notes: also called L20
B6: LacI fusion clone L34 (Gt library) (other, E. coli, not shown: small tags and cut ends)
chain: MKPVTLYDVAEYAGVSYQTVSRVVNQASHVSAKTREKVEAAMAELNYIPNRVAQQLAGKQSLLIGVATSSLALHAPSQIVAAIKSRADQLGASVVVSMVERSGVEACKAAVHNLLAQRVSGLIINYPLDDQDAIAVEAACTNVPALFLDVSDQTPINSIIFSHEDGTRLGVEHLVALGHQQIALLAGPLSSVSARLRLAGWHKYLTRNQIQPIAEREGDWSAMSGFQQTMQMLNEGIVPTAMLVANDQMALGAMRAITESGLRVGADISVVGYDDTEDSSCYIPPLTTIKQDFRLLGQTSVDRLLQLSQGQAVKGNQLLPVSLVKRKTTLAPNTQTASPRALADSLMQLARQVSRLESGQILESLNECGLF
B7: LacI fusion clone L33 (Gt library) (other, E. coli, not shown: small tags and cut ends)
chain: MKPVTLYDVAEYAGVSYQTVSRVVNQASHVSAKTREKVEAAMAELNYIPNRVAQQLAGKQSLLIGVATSSLALHAPSQIVAAIKSRADQLGASVVVSMVERSGVEACKAAVHNLLAQRVSGLIINYPLDDQDAIAVEAACTNVPALFLDVSDQTPINSIIFSHEDGTRLGVEHLVALGHQQIALLAGPLSSVSARLRLAGWHKYLTRNQIQPIAEREGDWSAMSGFQQTMQMLNEGIVPTAMLVANDQMALGAMRAITESGLRVGADISVVGYDDTEDSSCYIPPLTTIKQDFRLLGQTSVDRLLQLSQGQAVKGNQLLPVSLVKRKTTLAPNTQTASPRALADSLMQLARQVSRLESGQIVEILEDCGLF
B8: LacI fusion clone L6 (Gt library) (other, E. coli, not shown: small tags and cut ends)
chain: MKPVTLYDVAEYAGVSYQTVSRVVNQASHVSAKTREKVEAAMAELNYIPNRVAQQLAGKQSLLIGVATSSLALHAPSQIVAAIKSRADQLGASVVVSMVERSGVEACKAAVHNLLAQRVSGLIINYPLDDQDAIAVEAACTNVPALFLDVSDQTPINSIIFSHEDGTRLGVEHLVALGHQQIALLAGPLSSVSARLRLAGWHKYLTRNQIQPIAEREGDWSAMSGFQQTMQMLNEGIVPTAMLVANDQMALGAMRAITESGLRVGADISVVGYDDTEDSSCYIPPLTTIKQDFRLLGQTSVDRLLQLSQGQAVKGNQLLPVSLVKRKTTLAPNTQTASPRALADSLMQLARQVSRLESGQICENLKDCGLF
B9: LacI fusion clone L15 (Gt library) (other, E. coli, not shown: small tags and cut ends)
chain: MKPVTLYDVAEYAGVSYQTVSRVVNQASHVSAKTREKVEAAMAELNYIPNRVAQQLAGKQSLLIGVATSSLALHAPSQIVAAIKSRADQLGASVVVSMVERSGVEACKAAVHNLLAQRVSGLIINYPLDDQDAIAVEAACTNVPALFLDVSDQTPINSIIFSHEDGTRLGVEHLVALGHQQIALLAGPLSSVSARLRLAGWHKYLTRNQIQPIAEREGDWSAMSGFQQTMQMLNEGIVPTAMLVANDQMALGAMRAITESGLRVGADISVVGYDDTEDSSCYIPPLTTIKQDFRLLGQTSVDRLLQLSQGQAVKGNQLLPVSLVKRKTTLAPNTQTASPRALADSLMQLARQVSRLESGQVRDILKDCGLF
B10: LacI fusion clone 8 (Gt library) (other, E. coli, not shown: small tags and cut ends)
chain: MKPVTLYDVAEYAGVSYQTVSRVVNQASHVSAKTREKVEAAMAELNYIPNRVAQQLAGKQSLLIGVATSSLALHAPSQIVAAIKSRADQLGASVVVSMVERSGVEACKAAVHNLLAQRVSGLIINYPLDDQDAIAVEAACTNVPALFLDVSDQTPINSIIFSHEDGTRLGVEHLVALGHQQIALLAGPLSSVSARLRLAGWHKYLTRNQIQPIAEREGDWSAMSGFQQTMQMLNEGIVPTAMLVANDQMALGAMRAITESGLRVGADISVVGYDDTEDSSCYIPPLTTIKQDFRLLGQTSVDRLLQLSQGQAVKGNQLLPVSLVKRKTTLAPNTQTASPRALADSLMQLARQVSRLESGQLLENLRDCGMF
notes: also called Peptide 8; HAP

T1 sequence (P02699 whole entry): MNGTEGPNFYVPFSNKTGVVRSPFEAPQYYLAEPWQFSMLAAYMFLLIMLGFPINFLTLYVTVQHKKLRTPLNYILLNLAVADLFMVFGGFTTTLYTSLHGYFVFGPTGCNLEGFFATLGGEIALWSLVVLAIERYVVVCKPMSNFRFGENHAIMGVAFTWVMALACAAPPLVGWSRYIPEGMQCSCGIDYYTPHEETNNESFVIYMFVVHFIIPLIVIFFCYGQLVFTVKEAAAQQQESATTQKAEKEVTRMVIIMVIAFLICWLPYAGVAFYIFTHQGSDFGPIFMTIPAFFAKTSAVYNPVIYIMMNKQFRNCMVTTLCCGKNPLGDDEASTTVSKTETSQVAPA

The first experiment addresses T1, light-activated bovine rhodopsin (metarhodopsin II) in rod outer segment membranes (bovine, UniProt P02699 1-348, retinylidene chromophore on Lys-296 (all-trans after light)).
T1 construct: whole, on cells; also called MII
As to the kind of experiment: ELISA of clone lysate on rhodopsin. On the procedure: The methods of Example 7 repeated using rhodopsin screening with a Gt library. To identify the rank order of binding, the lysates were analyzed using ELISA methods in which the secondary antibody was conjugated to HRP. Following addition of the substrate, the microplate was read using a spectrophotometer. The binding is the OD₄₅₀ for wells with receptor—OD₄₅₀ for wells in which no receptor (control wells with empty lipid vesicles).
With B1, the “ELISA (OD450 with receptor minus OD450 without receptor)” value was found to be 0.839 OD450.
Still for that read-out and setting: under B2 stands 0.506 OD450; under B3, 0.823 OD450; under B4, 0.833 OD450.
B5: the “ELISA (OD450 with receptor minus OD450 without receptor)” value was determined as 0.423 OD450.
The same measure, in the same setting: under B6 stands 0.603 OD450.
Same read-out and setting: the result for B7 reads 1.01 OD450.
Still for that read-out and setting: the result for B8 reads 0.342 OD450.
For B9, the “ELISA (OD450 with receptor minus OD450 without receptor)” value was found to be 0.621 OD450.

Another experiment concerns the target T2, human thrombin receptor (PAR1) (human, UniProt P25116 42-425).
T2 sequence (looked up): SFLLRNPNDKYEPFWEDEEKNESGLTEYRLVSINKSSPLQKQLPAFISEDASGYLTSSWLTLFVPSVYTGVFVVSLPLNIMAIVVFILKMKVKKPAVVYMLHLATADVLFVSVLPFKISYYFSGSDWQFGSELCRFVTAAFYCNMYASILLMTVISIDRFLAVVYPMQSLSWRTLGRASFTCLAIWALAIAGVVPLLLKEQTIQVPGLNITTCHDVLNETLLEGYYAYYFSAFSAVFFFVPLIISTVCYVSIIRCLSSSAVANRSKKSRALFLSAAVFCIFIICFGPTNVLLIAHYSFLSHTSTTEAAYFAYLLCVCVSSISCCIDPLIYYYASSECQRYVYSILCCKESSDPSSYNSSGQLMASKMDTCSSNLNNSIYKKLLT
As to the kind of experiment: ELISA dose-response, purified MBP-Gαq on purified reconstituted PAR1 with thrombin receptor activating peptide.
The IC50 is the concentration that inhibits the measured activity by half. Consider “purified maltose binding protein-Gαq (MBP-Gαq), native Gq C-terminal peptide fusion”, for which the concentration for half-maximal inhibition (IC50) amounted to 214 nM.

The target of the next experiment is T1, light-activated bovine rhodopsin …. The experiment in a line: first screening of the Gαt library on light-activated rhodopsin.
With B10, the “fold higher binding than the native sequence” value turned out to be 1000 fold.

In another experiment the target is T2, human thrombin receptor (PAR1). As to the kind of experiment: cell-based or functional assay.
As to MGLQENLKDIMLQ [Gα12 C-terminal minigene peptide (pcDNA-Gα12)], the “thrombin-mediated HA-MAPK activity in HMEC” value came out at 50 % decrease.
Same read-out and setting: under MGIKNNLKDCGLF [Gαi C-terminal minigene peptide (pcDNA-Gαi)] stands 59 % decrease.
Still for that read-out and setting: the result for MGLQLNLKEYNAV [Gαq C-terminal minigene peptide (pcDNA-Gαq)] reads 57 % decrease.
Same read-out and setting: under MGLHDNLKQLMLQ [Gα13 C-terminal minigene peptide (pcDNA-Gα13)] stands 77 % decrease.
